Data on one protein can be found in paper PMC3931076, “Crystal Structures of Leukotriene C4 Synthase in Complex with Product Analogs” (The Journal of Biological Chemistry, 2013).

This series deals with the molecule itself. Briefly: crystal structure; sitting drop vapor diffusion at room temperature, 3.5 mg/ml protein with 1 mM GSH; 1.8-2.2 M NH4SO4, 0.2 M NaCl, 0.1 M sodium cacodylate pH 6.1-6.8; analog I soaked, analogs II and III co-crystallised; space group F23.

B1: Leukotriene C4 synthase (human, wild type) (enzyme)
chain: MKDEVALLAAVTLLGVLLQAYFSLQVISARRAFRVSPPLTTGPPEFERVYRAQVNCSEYFPLFLATLWVAGIFFHEGAAALCGLVYLFARLRYFQGYARSAQLRLAPLYASARALWLLVALAALGLLAHFLPAALRAALLGRLRTLLPWA
notes: Leukotriene C4 synthase, human, wild type; integral membrane protein in dodecyl maltoside; Expression and purification 'essentially as described (15)'; The trimer arises by crystal symmetry (space group F23); also called LTC4S; LTC4 synthase
As to B1, the “stoichiometry N” value was 3.

One may read the stoichiometry N as a count of units in the complex or per binding partner.
